From patent US20230227512A1

Assays:
[1] = molecular target: BG505 SOSIP.664 trimer+sCD4 complex (HIV-1 strain BG505; human) (UniProt P01730); assay: SPR read-out on captured 3074 IgG of trimer incubated with sCD4
[2] = molecular target: BG505.SOSIP.664.201C-433C HIV-1 Env ectodomain trimer (HIV-1 strain BG505); assay: SPR, single-cycle kinetics

In the case of 3074 antibody, the t1/2 of CD4-induced appearance of binding [1] was 4.2 h.
Work on “soluble CD4 (sCD4) (from UniProt P01730 26-208) (receptor)” yielded a fold faster off-rate relative to parent SOSIP.664 [2] of 10 fold and a fold reduction in KD (affinity) relative to SOSIP.664 [2] of 10 fold.
